B1: aldolase A: purified human aldolase A (purity >95%), glycolytic enzyme (protein, UniProt P04075 2-364, looked up)
Fructose-bisphosphate …: PYQYPALTPEQKKELSDIAHRIVAPGKGILAADESTGSIAKRLQSIGTENTEENRRFYRQLLLTADDRVNPCIGGVILFHETLYQKADDGRPFPQVIKSKGGVVGIKVDKGVVPLAGTNGETTTQGLDGLSERCAQYKKDGADFAKWRCVLKIGEHTPSALAIMENANVLARYASICQQNGIVPIVEPEILPDGDHDLKRCQYVTEKVLAAVYKALSDHHIYLEGTLLKPNMVTPGHACTQKFSHEEIAMATVTALRRTVPPAVTGITFLSGGQSEEEASINLNAINKCPLLKPWALTFSYGRALQASALKAWGGKKENLKAAQEEYVKRALANSLACQGKYTPSGQAGAAASESLFVSNHAY

How the values were obtained:
[1] = test system: spontaneously developed mammary tumors; experiment: NIR-imaging of transgenic mice; type: in vivo; conditions: 5 mg/kg once, imaged after 24 h
Description: FIG. 29A-29C: Effect of azurin from P. aeruginosa in a transgenic animal model. 29A. Near-infrared red (NIR) dye-conjugated azurin or PBS was injected i.v. into transgenic mice that spontaneously develop mammary tumors. Twenty-four hours after azurin injection, mice were imaged with a photodynamic eye (PDE) system (left: photographic image, right: NIR fluorescence image at 800 nm). 29B. At the end of the study, the tumors were resected.
NIR-imaging of transgenic mice: Near infrared red fluorescent dye (IR800, Licor, NE) was conjugated to azurin according to the manufacturer instructions. Transgenic mice with spontaneously developed mammary tumours received NIR dye conjugated azurin at 5 mg/kg once i.p. After 24 h, specific fluorescence signal at 800 nm was recorded by the PDE-neo® NIR camera system (Hamamatsu photonics, Mitaka-USA).

P. aeruginosa = experiment: Azurin secretion by P. aeruginosa treated with purified aldolase A (western blot); type: cell-based, Pseudomonas aeruginosa; conditions: 30 min
Description: FIG. 18A-18G: Induction of aldolase A secretion by host cells in the presence of P. aeruginosa. 18A. Human host cells (cancer and normal) and P. aeruginosa were co-incubated for 30 min at a concentration of 500,000 human cells/ml with P. aeruginosa at OD=0.3. Aldolase secretion varied between the co-cultures with cancer and normal cells. […] 18B Correlation between the aldolase A and azurin levels in co-cultures of P. aeruginosa with cancer or normal cells. 18C Cancer cells (Mel-2 and MDA-MB-231) and P. aeruginosa (WT and azunull mutant) were co-incubated for 30 min at a concentration of 500,000 human cells/ml with P. aeruginosa at OD=0.3. Secretion of aldolase into the culture supernatant was assessed by western blot analysis. 18D P. aeruginosa (OD=0.3) was treated with purified aldolase A protein at concentrations of 1 nM, 10 nM, 100 nM, and 1 μM for 30 min. […]
Western blotting: After running the NuPAGE, proteins were transferred to PVDF membranes (BioRad Laboratories Inc, Hercules, CA) which were blocked in SuperBlock (T20 TBS buffer, Thermo Fisher) for one hour. […] The signal was detected using enhanced chemiluminescence (ECL, Thermo Fisher Scientific). Quantitative analysis of the bands was performed with a computer-assisted imaging densitometer (UN-SCAN-IT gel version 5.1).

MDA-MB-231 cells = experiment: Host cell adhesion assay, P. aeruginosa on MDA-MB-231 cells; type: cell-based, human
Description: (§1) FIG. 24A-24E: 24A—Adherence assays were performed essentially as previously described38. Monolayer MDA-MB-231 (red) and Mel-2 (blue) cells were compared to siRNA-induced silencing of aldolase gene in the cancer cell lines (+) when they were co-incubated with P. aeruginosa for 2 h. To assess total cell association, monolayers were washed to remove unbound P. aeruginosa and were then disrupted and homogenized in 0.10% saponin/PBS. P. aeruginosa cells were counted by serial dilution of the homogenized suspensions and subsequent determination of colony-forming units (CFU) by plating on LB agar. Control (−) expressed as 100%. Mean±SE, *P<0.05. 24B—Monolayer MDA-MB-231 (red) and Mel-2 (blue) cells were co-incubated with P. aeruginosa in the presence or absence of exogenous aldolase A for 2 h. Similar to above, total P. aeruginosa association on cancer cells were counted by plating on LB agar. Control (0 μM aldolase A) expressed as 100%. […] Total P. aeruginosa association on cancer cells were counted by plating on LB agar. *P<0.05, NS: not significant. […] The mean+SE values were calculated.
(§2) Host cell adhesion assay: The assays were performed essentially as described before38. […] Control values of CFU/ml expressed as 100%. siRNA-induced silencing of aldolase and MUC1 genes in MDA-MB-231 and Mel2 cells as conducted as described previously80,81. […]

Mel-2 cells = experiment: Host cell adhesion assay, P. aeruginosa on Mel-2 cells; type: cell-based, human
Description: as §1, §2

Row | Molecule | tumor localization (NIR fluorescence at 800 nm) [1] | azurin secretion by P. aeruginosa (western blot) (P. aeruginosa; P. aeruginosa OD=0.3, 1 μM aldolase A) | azurin secretion by P. aeruginosa (western blot) (P. aeruginosa; P. aeruginosa OD=0.3, purified aldolase A 1 nM-1 μM) | aldolase A concentration at which increase of adherence is saturable (MDA-MB-231 cells; MDA-MB-231, 2 h) [µM] | adherence of P. aeruginosa to cancer cells (MDA-MB-231 cells; MDA-MB-231, exogenous aldolase A, 2 h) | aldolase A concentration at which increase of adherence is saturable (Mel-2 cells; Mel-2, 2 h) [µM] | adherence of P. aeruginosa to cancer cells (Mel-2 cells; Mel-2, exogenous aldolase A, 2 h)
1 | NIR dye-conjugated azurin: azurin conjugated to near infrared red fluorescent dye IR800 | preferentially localized to spontaneously developed mammary tumors |  |  |  |  |  | 
2 | B1 |  | stimulated azurin secretion | induced azurin secretion | > 1 | significantly increased adherence to cancer cells | > 1 | significantly increased adherence to cancer cells

— patent US20250179126A1, “A NOVEL PEPTIDE FROM A PHOTOSYNTHETIC BACERIUM DIRECTLY TARGETS MITOCHONDRIA TO TRIGGER APOPTOSIS IN ADVANCED PROSTATE CANCER CELLS” (priority 2022, published 2025)
